Assay results from patent publication US20260015405A1 (TRANSGENE, published 2026).
Positions count from the first letter of the chain named.

B1: construct encoded by pTG20042: [N-terminus]-[collagen domain(30)]-[coiled-coil neck domain]-[CD40L] (ligand)
chain: AEMKTYSHRTMPSACTLVMCSSVESGLPGRDGRDGREGPRGEKGDPGLPGAAGQAGMPGQAGPVGPKGDNGSVGEPGPKGDTGPSGPPGPPGVPGPAGREGPLGKQGNIGPQGKPDVASLRQQVEALQGQVQHLQAAFSQYKKVENPQIAAHVISEASSKTTSVLQWAEKGYYTMSNNLVTLENGKQLTVKRQGLYYIYAQVTFCSNREASSQAPFIASLCLKSPGRFERILLRAANTHSSAKPCGQQSIHLGGVFELQPGASVFVNVTDPSQVSHGTGFTSFGLLKL
notes: Tested as clarified HeLa supernatant
B2: construct encoded by pTG19325: fusion protein SPD (M1-G257, P35247 numbering)-CD40L (H47 to L261 from P29965 numbering) (ligand)
chain: AEMKTYSHRTMPSACTLVMCSSVESGLPGRDGRDGREGPRGEKGDPGLPGAAGQAGMPGQAGPVGPKGDNGSVGEPGPKGDTGPSGPPGPPGVPGPAGREGPLGKQGNIGPQGKPGPKGEAGPKGEVGAPGMQGSAGARGLAGPKGERGVPGERGVPGNTGAAGSAGAMGPQGSPGARGPPGLKGDKGIPGDKGAKGESGLPDVASLRQQVEALQGQVQHLQAAFSQYKKVELFPNGHRRLDKIEDERNLHEDFVFMKTIQRCNTGERSLSLLNCEEIKSQFEGFVKDIMLNKEETKKENSFEMQKGDQNPQIAAHVISEASSKTTSVLQWAEKGYYTMSNNLVTLENGKQLTVKRQGLYYIYAQVTFCSNREASSQAPFIASLCLKSPGRFERILLRAANTHSSAKPCGQQSIHLGGVFELQPGASVFVNVTDPSQVSHGTGFTSFGLLKL
notes: Tested as clarified, unpurified supernatant of infected/transfected HeLa cells; concentration unknown; The construct begins at M1 of SPD, so the entry may include the native signal peptide; The form range is that of the CD40L part
B3: construct encoded by pTG19968: [N-terminus]-[collagen domain(12)]-[coiled-coil neck domain]-[CD40L] (ligand)
chain: AEMKTYSHRTMPSACTLVMCSSVESGQAGPVGPKGDNGSVGEPGPKGDTGPSGPPGPPGVPDVASLRQQVEALQGQVQHLQAAFSQYKKVENPQIAAHVISEASSKTTSVLQWAEKGYYTMSNNLVTLENGKQLTVKRQGLYYIYAQVTFCSNREASSQAPFIASLCLKSPGRFERILLRAANTHSSAKPCGQQSIHLGGVFELQPGASVFVNVTDPSQVSHGTGFTSFGLLKL
B4: construct encoded by pTG19969: [N-terminus]-[collagen domain(12)]-[coiled-coil neck domain]-[linker]-[CD40L] (ligand)
chain: AEMKTYSHRTMPSACTLVMCSSVESGQAGPVGPKGDNGSVGEPGPKGDTGPSGPPGPPGVPDVASLRQQVEALQGQVQHLQAAFSQYKKVEGGGSGGGSGGGSNPQIAAHVISEASSKTTSVLQWAEKGYYTMSNNLVTLENGKQLTVKRQGLYYIYAQVTFCSNREASSQAPFIASLCLKSPGRFERILLRAANTHSSAKPCGQQSIHLGGVFELQPGASVFVNVTDPSQVSHGTGFTSFGLLKL
B5: construct encoded by pTG19967: [N-terminus]-[coiled-coil neck domain]-[linker]-[CD40L] (ligand)
chain: AEMKTYSHRTMPSACTLVMCSSVESDVASLRQQVEALQGQVQHLQAAFSQYKKVEGGGSGGGSGGGSNPQIAAHVISEASSKTTSVLQWAEKGYYTMSNNLVTLENGKQLTVKRQGLYYIYAQVTFCSNREASSQAPFIASLCLKSPGRFERILLRAANTHSSAKPCGQQSIHLGGVFELQPGASVFVNVTDPSQVSHGTGFTSFGLLKL
B6: construct encoded by pTG19966: [N-terminus]-[coiled-coil neck domain]-[CD40L] (ligand)
chain: AEMKTYSHRTMPSACTLVMCSSVESDVASLRQQVEALQGQVQHLQAAFSQYKKVENPQIAAHVISEASSKTTSVLQWAEKGYYTMSNNLVTLENGKQLTVKRQGLYYIYAQVTFCSNREASSQAPFIASLCLKSPGRFERILLRAANTHSSAKPCGQQSIHLGGVFELQPGASVFVNVTDPSQVSHGTGFTSFGLLKL
notes: Tested as clarified HeLa supernatant, oligomeric state mixed; It was detected by anti-FLAG immunoblot
B7: construct encoded by pTG20038: [N-terminus]-[collagen domain(6 + N-Gly)]-[coiled-coil neck domain]-[CD40L] (ligand)
chain: AEMKTYSHRTMPSACTLVMCSSVESGQAGPVGPKGDNGSVGEPDVASLRQQVEALQGQVQHLQAAFSQYKKVENPQIAAHVISEASSKTTSVLQWAEKGYYTMSNNLVTLENGKQLTVKRQGLYYIYAQVTFCSNREASSQAPFIASLCLKSPGRFERILLRAANTHSSAKPCGQQSIHLGGVFELQPGASVFVNVTDPSQVSHGTGFTSFGLLKL
notes: as for B1
B8: construct encoded by pTG20039: [N-terminus]-[collagen domain(6 - N-Gly)]-[coiled-coil neck domain]-[CD40L] (ligand)
chain: B7 chain with Q27P, A28K, P30D, V31T, K34S, D36P, N37P, S39P, V40P, E42V
notes: as for B1
B9: construct encoded by pTG20041: [N-terminus]-[collagen domain(12bis)]-[coiled-coil neck domain]-[CD40L] (ligand)
chain: AEMKTYSHRTMPSACTLVMCSSVESGPLGKQGNIGPQGKPGPKGEAGPKGEVGAPGMQGSADVASLRQQVEALQGQVQHLQAAFSQYKKVENPQIAAHVISEASSKTTSVLQWAEKGYYTMSNNLVTLENGKQLTVKRQGLYYIYAQVTFCSNREASSQAPFIASLCLKSPGRFERILLRAANTHSSAKPCGQQSIHLGGVFELQPGASVFVNVTDPSQVSHGTGFTSFGLLKL
notes: as for B1

The binders below were run against T1, CD40-Fc (immobilized recombinant human CD40) (human, UniProt P25942 21-193, limits assumed) (assay: ELISA, CD40-Fc coated, HeLa supernatant, detection with non-competitive anti-CD40L).
T1 construct: Coated on the ELISA plate
T1 sequence (P25942 21-193 limits assumed): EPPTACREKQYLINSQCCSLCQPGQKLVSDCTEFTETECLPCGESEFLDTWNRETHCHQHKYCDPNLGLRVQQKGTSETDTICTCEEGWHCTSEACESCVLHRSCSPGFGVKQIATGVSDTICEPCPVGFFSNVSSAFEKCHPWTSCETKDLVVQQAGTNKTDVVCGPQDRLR
B1: binds.
B2: binds.
B3: binds.
B4: binds.
B5: binds.
B6: binds.
B7: binds.
B8: binds.
B9: binds.
